Laboratory results as given in patent publication US8030017B2, “Thermostable luciferases and methods of production” (Promega Corporation, priority 1997, dated 2011).

Legend:
[1] = Robotic quantitative screen of E. coli lysates: luminescence activity (Li), expression/specific activity; type: biochemical; conditions: relative value; Control is Luc85-4F12 at 65° C. (=1)
Description: A plate containing cells is retrieved from the carousel and placed on the shaker for 3-5 minutes to fully mix the cells. The cells tend to settle from solution upon standing.
To measure Optical Density (O.D.), the plate is moved from the shaker to the locator near the luminometer; the lid is removed and the plate placed into the luminometer. The O.D. is measured using a 620 nm filter.
To prepare a cell lysate, the plate of cells is first retrieved from the refrigerator and mixed on the shaker to resuspend the cells. A new plate from the carousel without a lid is placed in the reagent dispenser and 20 μl of Buffer A is added to each well. This is placed in the pipetting station.
The plate is then moved to the reagent dispenser to add 175 μl of Buffer B, and then mixed on the shaker for about 15 minutes or more. The combination of the freeze/thaw and Buffer B will cause the cells to lyse.
One daughter plate is placed in the luminometer and the 1X assay method is used. After the assay, the plate is placed in the ambient incubator, and the second daughter plate is placed in the luminometer. For the second plate, the 0.02X assay method is used. This plate is discarded, and the first plate is returned from the incubator to the luminometer. The repeat assay method is used (i.e., no reagent is injected). Afterwards, the plate is again returned to the ambient incubator.
1X Assay reagent: 5 μM Luciferin; 175 μM ATP; 20 mM Tricine, pH 8.0; 0.1 mM EDTA
The following criteria were used for screening purposes. The temperature chosen for the enzyme stability parameter was such that the parent enzyme would decay 100 to 1000 fold over 10 hours (see Table 1). Criteria 1 is achieved manually; data for criteria 2-6 is generated by robotic analysis. For all criteria, the maximum value as described is selected. • 1. In vivo screen. The brightest clones are selected at a given temperature. • 2. Expression/specific activity. The value for normalized luminescence is calculated as the ratio of luminescence to optical density. The value is reported as the ratio with the reference value. • 3. Enzyme stability. Measurements of normalized luminescence of the incubated samples (3 taken over about 15 hours) are fitted to In(L)=In(L0)−(t/τ), where L is normalized luminescence and t is time. τ is a measure of the enzyme stability. The value is reported as the ratio with the reference value, and the correlation coefficients are calculated. • 4. Substrate binding. Measurements of normalized luminescence with 1X and 0.02X are taken at the initial reading set, and 1X and 0.06X are taken at the 5 hour set. The ratio of the 0.02X:1X and 0.06X:1X gives the relative luminescence at 0.02X and 0.06X concentrations. These values, along with the relative luminescence at 1X (i.e., 1), are fitted to a Lineweaver-Burk plot to yield the Km:app,total for the substrates ATP, luciferin, and CoA. The values are reported as the inverse ratio with the reference value, and the correlation coefficients are calculated. • 5. Signal stability. The luminescence of the initial IX luminescent reactions are re-measured 3 additional times over about 15 hours. These values are fitted to In(L)=In(L0)−(t/τ) and the integral over t (15 hours) is calculated. Signal stability is then calculated as S=(1−int(L)/L0t)^2. The values are reported as the inverse ratio with the reference value, and the correlation coefficients are calculated. • 6. Composite fitness. The values of criteria 2 through 5 are combined into a single composite value of fitness (or commercial utility). This value is based on a judgment of the relative importance of the other criteria. This judgment is given below:
Normalize luminescence data: For each measurement of luminescence in the eight daughter plates, the normalized luminescence is calculated by dividing the relative light units by the optical density of the original plate. […]

[2] = Thermostability (half-life, retained activity) of luciferases incubated in aqueous solution at different temperatures; type: physicochemical; conditions: for loss in activity: aqueous solution
Description: As defined herein, a “thermostable” enzyme, e.g., a luciferase, or an enzyme which has “thermostability”, is an enzyme which under certain conditions, e.g., at certain temperature, in aqueous solution and/or for certain periods of time, has an increased retention of activity relative to a reference enzyme. For example, for a thermostable luciferase, a reference luciferase may be native wild-type luciferase or recombinant wild-type luciferase. Preferably, for beetle luciferases, the activity is luminescence under conditions of saturation with luciferin and ATP. One measure of thermostability of an enzyme is the half-life of the enzyme in an aqueous solution (the time over which 50% of the activity is lost) at a stated temperature.
Protein purification: Four mutants that are described herein (Luc[T249M], Luc49-7C6, Luc78-0B10, and Luc90-1B5) were purified using a previously published procedure (Hastings et al., 1996).
[…] Enzyme stability was determined from diluted proteins incubated at different temperatures, and aliquots were removed at different time points. A linear regression of the natural log of the luminescence and time was calculated. Half-life was calculated as the 1n(0.5)/slope of the regression.

B1: Luc90-1B5: mutant luciferase, SEQ ID NO:24 (protein)
chain: MADKNILYGPEPFYPLEDGTAGEQMFDALSRYADIPGCIALTNAHTKENVLYEEFLKLSCRLAESFKKYGLKQNDTIAVCSENGLQFFLPVIASLYLGIIVAPVNDKYIERELIHSLGIVKPRIVFCSKNTFQKVLNVKSKLKSIETIIILDLNEDLGGYQCLNNFISQNSDSNLDVKKFKPYSFNRDDQVALIMFSSGTTGLPKGVMLTHKNIVARFSLAKDPTFGNAINPTTAILTVIPFHHGFGMMTTLGYFTCGFRVVLMHTFEEKLFLQSLQDYKVESTLLVPTLMAFLAKSALVEKYDLSHLKEIASGGAPLSKEIGEMVKKRFKLNFVRQGYGLTETTSAVLITPKGDAKPGSTGKIVPFHAVKVVDPTTGKILGPNEPGELYFKGPMIMKGYYNNEEATKAIIDNDGWLRSGDIAYYDNDGHFYIVDRLKSLIKYKGYQVAPAEIEGILLQHPYIVDAGVTGIPDEAAGELPAAGVVVQTGKYLNEQIVQDYVASQVSTAKWLRGGVKFLDEIPKGSTGKIDRKVLRQMFEKHTNG
modifications: Mutant luciferase
[1]
  Luminescence (Li): 1.4743
[2]
  increased thermostability compared to LucPpe2 [T249M]: about 35 °C
[2]; 22° C. over several weeks, pH 6.5 (FIG. 16B)
  stability: stable
[2]; 65° C. over several hours, citrate buffer at pH 6.5 (FIG. 16A)
  activity loss: very little activity loss
[2]; 65° C., same buffer conditions as Table 2 (FIG. 16A)
  half-life: 27 h
[2]; after 120 hours (5 days) at 50° C., 25 mol/L citrate pH 6.5, 150 mmol/L NaCl, 1 mg/mL BSA, 0.1 mmol/L EDTA, 5% glycerol
  activity maintained: 75%
[2]; 2 hours at 50° C.
  loss in activity: 5%
[2]; 5 hours at 65° C.
  loss in activity: 5%
[2]; over 6 weeks at 22° C.
  loss in activity: 5%
